Read-outs that look alike come from different tables or passages of the source.
Tests used:
[1] = biological target: human FXa (American Diagnostica Inc.) (human) (UniProt P00742)
[2] = biological target: human FXa (American Diagnostica Inc.) (human) (UniProt P00742); remark: listed apart in the source
[3] = biological target: human FXa (American Diagnostica Inc.) (human) (UniProt P00742); remark: listed apart in the source
[4] = biological target: human FXa (American Diagnostica Inc.) (human) (UniProt P00742); remark: listed apart in the source
[5] = biological target: human FXa (American Diagnostica Inc.) (human) (UniProt P00742); remark: listed apart in the source
[6] = biological target: activated blood coagulation factor X (FXa) (Homo sapiens, UniProt P00742); conditions: background statement; cited from earlier work
activated blood coagulation factor X (FXa), sequence (P00742 235-488 limits assumed): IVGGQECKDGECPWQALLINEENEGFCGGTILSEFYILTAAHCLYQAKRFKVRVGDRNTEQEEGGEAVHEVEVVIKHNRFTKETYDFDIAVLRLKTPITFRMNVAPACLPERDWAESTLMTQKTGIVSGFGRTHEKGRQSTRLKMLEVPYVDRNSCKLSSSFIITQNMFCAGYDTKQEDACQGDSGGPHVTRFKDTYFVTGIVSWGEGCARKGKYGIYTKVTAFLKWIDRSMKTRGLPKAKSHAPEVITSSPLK
activated blood coagulation factor X (FXa), sequence (P00742 41-179 partner limits assumed): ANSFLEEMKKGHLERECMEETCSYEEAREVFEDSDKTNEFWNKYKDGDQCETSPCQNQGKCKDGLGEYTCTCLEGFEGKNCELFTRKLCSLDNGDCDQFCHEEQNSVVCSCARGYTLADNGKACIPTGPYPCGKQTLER

human FXa (American Diagnostica Inc.) (human), sequence (P00742 41-488 limits assumed): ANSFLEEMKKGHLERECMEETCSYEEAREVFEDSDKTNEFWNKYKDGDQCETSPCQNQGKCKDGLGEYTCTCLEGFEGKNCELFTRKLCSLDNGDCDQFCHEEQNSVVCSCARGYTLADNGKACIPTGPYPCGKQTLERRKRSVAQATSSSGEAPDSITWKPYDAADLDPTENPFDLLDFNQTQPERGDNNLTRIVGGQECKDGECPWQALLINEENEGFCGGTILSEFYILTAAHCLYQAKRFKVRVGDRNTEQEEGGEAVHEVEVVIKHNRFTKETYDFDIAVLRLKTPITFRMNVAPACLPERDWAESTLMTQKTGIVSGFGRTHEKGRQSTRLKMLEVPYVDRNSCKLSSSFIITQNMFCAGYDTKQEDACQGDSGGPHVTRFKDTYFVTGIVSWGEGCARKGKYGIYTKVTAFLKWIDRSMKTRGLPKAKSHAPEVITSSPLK

**Q.** With DDAACNLPIVRGPCRAFIKLWAFDAVKGKCVLFPYGGCQGNGNKFYSEK [polypeptide Q19K] as the molecule, how does the human FXa-inhibiting activity (substrate S-2222, residual FXa activity) (times higher than polypeptide TN70) [1] read?
**A.** The human FXa-inhibiting activity (substrate S-2222, residual FXa activity) (times higher than polypeptide TN70) was 5.

**Q.** With AACNLPIVRGPCRAFIRLWAFDAVKGKCVLFPYGGCQGNGNKFYSEK [polypeptide Q19R] as the molecule, how does the human FXa-inhibiting activity (substrate S-2222, residual FXa activity) (times higher than polypeptide AN68) [2] read?
**A.** The human FXa-inhibiting activity (substrate S-2222, residual FXa activity) (times higher than polypeptide AN68) was 6.

**Q.** With AACNLPIVRGPCRAFIKLWAFDAVKGKCVLFPYGGCQGNGNKFESEK [polypeptide Q19K/Y46E] as the molecule, how does the human FXa-inhibiting activity (substrate S-2222, residual FXa activity) (times higher than polypeptide AN68) [3] read?
**A.** The human FXa-inhibiting activity (substrate S-2222, residual FXa activity) (times higher than polypeptide AN68) was 10.

**Q.** For AACNLPIVEGPCRAFIQLWAFDAVKGKCVLFPYGGCQGNGNKFESEK [polypeptide R11E/Y46E], which human FXa-inhibiting activity (substrate S-2222, residual FXa activity) (times higher than polypeptide AN68) [4] is on record?
**A.** The human FXa-inhibiting activity (substrate S-2222, residual FXa activity) (times higher than polypeptide AN68) was 3.

**Q.** Which human FXa-inhibiting activity (substrate S-2222, residual FXa activity) (times higher than polypeptide AN68) [5] does the source give for AACNLPIVRGPCRAFIRLWAFDAVKGKCVLFPYGGCQGNGNKFESEK [polypeptide Q19R/Y46E] here?
**A.** The human FXa-inhibiting activity (substrate S-2222, residual FXa activity) (times higher than polypeptide AN68) was 10.

B1: urinary trypsin inhibitor (protein, UniProt P02760 206-352, looked up)
Inter-alpha-trypsin inhibitor …: AVLPQEEEGSGGGQLVTEVTKKEDSCQLGYSAGPCMGMTSRYFYNGTSMACETFQYGGCMGNGNNFVTEKECLQTCRTVAACNLPIVRGPCRAFIQLWAFDAVKGKCVLFPYGGCQGNGNKFYSEKECREYCGVPGDGDEELLRFSN
modifications: Inter-alpha-trypsin inhibitor light chain
**Q.** With B1 as the molecule, how does the FXa-inhibiting activity [6] read?
**A.** Its FXa-inhibiting activity is “hardly show such an activity”.

B2: HI-30: Bikunins (HI-30), natural protease inhibitor (protein, UniProt P02760 206-352, looked up)
Inter-alpha-trypsin inhibitor …: B1 Inter-alpha-trypsin inhibitor …
modifications: Inter-alpha-trypsin inhibitor light chain
**Q.** With B2 as the molecule, how does the FXa-inhibiting activity [6] read?
**A.** Its FXa-inhibiting activity is “hardly show such an activity”.

From US5679770A, “Polypeptide, DNA fragment encoding the same, drug composition containing the same and process for producing the same” (Mochida Pharmaceutical Co., Ltd., priority 1991, dated 1997)
